Assay results taken from paper PMC11210195 (Frontiers in Immunology, 2024).

How the values were obtained:
cytokine-Fc Fusion Y436A [1] = target: cytokine-Fc Fusion Y436A (human); assay: SPR; cytokine-Fc Fusion constructs captured via anti-PGLALA F(ab')2 fragment (35-40 RU); PRYSPRY injected, two-fold series; 25°C, HBS-EP+ pH 7.4; 1:1 fit; conditions: both partners purified
cytokine-Fc Fusion Y436A [2] = target: cytokine-Fc Fusion Y436A (human); assay: SPR; cytokine-Fc Fusion constructs captured via anti-PGLALA F(ab')2 fragment at low density; TRIM21-CC-PS injected; 25°C, HBS-EP+; apparent (avidity) constants; conditions: both partners purified
[3] = target: the molecule itself; assay: SEC-MALS; TRIM21-CC-PS alone, 1 mg/mL, 50 µg injected, Superdex200 Increase 10/300 GL, PBS pH 7.4

Row | Binder | fold change of off rate against WT (cytokine-Fc Fusion Y436A [1]) [fold] | fold change of on rate against WT (cytokine-Fc Fusion Y436A [1]) [fold] | fold decrease of affinity against mAb1 Fc WT (cytokine-Fc Fusion Y436A [1]) [fold] | t1/2 of dissociation (cytokine-Fc Fusion Y436A [1]) [s] | avidity enhancement (K_(D,AFFINITY)/K_(D,AVIDITY)) (cytokine-Fc Fusion Y436A [2]) [fold] | fold weaker against the WT avidity (cytokine-Fc Fusion Y436A [2]) [fold] | stoichiometry N [3]
1 | TRIM21 PRYSPRY domain (domain or fragment, human, UniProt P19474-1 277-475, looked up, biotinylated where it was captured via monovalent streptavidin, human TRIM21 (Ro52, RNF81), PRYSPRY domain, amino acids 277 to 475 of isoform 1; also called PS; TRIM21 PRYSPRY variant; source: E. coli BL21 DE3, purified (Ni-NTA, Superdex S-200 gel filtration) by Proteros Biostructures; not shown: His-Avi-Tag (via a (4GS)1 linker), C-terminal, kept) GLKKMLRTCAVHITLDPDTANPWLILSEDRRQVRLGDTQQSIPGNEERFDSYPMVLGAQHFHSGKHYWEVDVTGKEAWDLGVCRDSVRRKGHFLLSSKSGFWTIWLWNKQKYEAGTYPQTPLHLQVPPCQVGIFLDYEAGMVSFYNITDHGSLIYSFSECAFTGPLRPFFSPGFNDGGKNTAPLTLCPLNIGSQGSTDY | 23 | 8 | 180 | 0.3 |  |  | 
2 | TRIM21-coiled-coil-PRYSPRY (TRIM21-CC-PS) (domain or fragment, human, UniProt P19474-1 128-475, looked up, biotinylated where it was captured via monovalent streptavidin, human TRIM21 (Ro52, RNF81), coiled-coil and PRYSPRY domains, amino acids 128 to 475 of isoform 1; also called PRYSPRY-coiled-coil variant; source: E. coli BL21 DE3, purified (Ni-NTA, Superdex S-200 gel filtration) by Proteros Biostructures; not shown: His-Avi-Tag (via a (4GS)1 linker), C-terminal, kept) LEEAAQEYQEKLQVALGELRRKQELAEKLEVEIAIKRADWKKTVETQKSRIHAEFVQQKNFLVEEEQRQLQELEKDEREQLRILGEKEAKLAQQSQALQELISELDRRCHSSALELLQEVIIVLERSESWNLKDLDITSPELRSVCHVPGLKKMLRTCAVHITLDPDTANPWLILSEDRRQVRLGDTQQSIPGNEERFDSYPMVLGAQHFHSGKHYWEVDVTGKEAWDLGVCRDSVRRKGHFLLSSKSGFWTIWLWNKQKYEAGTYPQTPLHLQVPPCQVGIFLDYEAGMVSFYNITDHGSLIYSFSECAFTGPLRPFFSPGFNDGGKNTAPLTLCPLNIGSQGSTDY |  |  |  |  | 14 | 766 | 2
